Assay: soluble on expression in E. coli; label from the status in PepcDB or PDB records

Sequence | soluble on expression in E. coli
MSLAKQPIDLLIQPKWRIIDQSSLGPYFDAKQSFAIDDTLCASVGKGLSPATARSWVHHDTIVLGIQDTRLPYLQEGISLLEEAGYQAIVRNSGGLAVVLDSGVLNVSLIFQDKKNGIDIDRGYEAMFELVKRMLSSYDAAIEAYEIKGSYCPGSFDLSIGGRKFAGISQRRLRGGVAVQIYLCADQSGSGRAELIKRFYDTALKDMRGKTKAVYPDIRPETMASLSELLNEDISVQDLMLLLLTQLKELGGEIYQGPLTPAEEEVYEKNLVRMIERNEKVFGEGHHHHHH | soluble
MKQLMIEASTPLCQLQDAGRFGVRHLGVTQGGALDWVAMHWANWLLGNPLGAPVVEVALGGFCVVAEQDCVLALAGADLDACVDDQPLAPWRSFALAKGQRLTLKQPKVGVRAYLAAPGGFLGEDVLGSCATVVREALGGIDGQGAALAKHQALAFTGSNAPLREVPQALCPQFAQKPVLDLVMGAQIGEFSGTSLFEAFNREWTLDSRADRMGIRLLGPQLVYQGAPMISEGIPLGAVQVPPDGQPIVLLNDRQTIGGYPRLGALTPLALAQLAQCMPGTVVRFRAVVQDEAWREQQLYLGRWS | not soluble
MSLTAIHRPTWVSVDLDAAAHNLQEIREWTKAKKVYAVLKADGYGLGAIPLAKAFQETASADALIVSNLDEALELRQADLTLPIWVLGAWDYSDLKLFIDHDIVITIPSLAWLQNLPDFEGTLKVSLAIDTGMTRIGFDKADEISAAKKIIDKNPQLDLFSVYTHFATADEAGEKSKAYFEEQLRRWQELTINQGFDPSLFSMANSATCIWHHDDPRISFAAIRPGQLISGVNVSNGELKMPPNLHLERIFSVCSEIADVRFVKKDQSLSYGASERMPEDGYVATLPFGYNDGWLRRMQKSSVIINGKRMPIIGRITMDQTMVKLDRKYPIGTRVTLIGKDGGEQITVEEVANYSHTIVDEIQTTLAPRIKRIYTGDLAEVIGANYGEGHHHHHH | soluble
MHGSKLPLTVWFWAAYLMATHSNGISARQMGRHLGLGSYKSAWLLCAKLRGAMVNLARALLSGLVEIDETQISYRTKDNPVAGGGGRSPEGKMQVVVAVEVIDNAPGRLRLGVIDDASSASLHPFIKASVASGATLKTDGWSAYPGAPGYKHEPHVVGKMAAHIVLPWVHRVISNLKTWALGVYHGLRRQHLQSYLNEFVFRFNCRRTPHAAFRTLLGIGLAIQPVTYNMLIAPEAQGLEHHHHHH | not soluble
MAHHHHHHMSLKAKLDVYPVENYTQTSVDVSNGHAGVAGNKVNLGAGSAAPFRPPSAIEKLLSLKKRCEEEPCVHSVEGVLLVHLHRHPHILLMKQINSRTRDADGMRTVPPSNTNAEVTYRLPGGRCRRGEAEESCLLRKLGRHLLNEAKTPAGAAEVASTGNSDTVVDVGMTHTASKAGSCFRVGEVLATWYRPHFTPHMYPYVPAHIAAGSVREVRTIYLVHLEPTVYFTMVQESVELVAAPLFDLYENSSKYGPIVASLPVLLSRVLINYCSTEY | not soluble
MGSDKIHHHHHHMMPQTSLHQHVMNWAISVPGDKTLKRDIFNNIWITASQRYEYQHLTFMAQGIVELLNTEIGGVDVSIPINLFLQSTEATKYDAEMLDFAQRIVTVKDRQHIALLSENILQKMPYQPDSTSVHTTATQAFQAGQGVCQDHAHVLIAMCRALQLPARYVSGYLFDQNSPHLASHAWAEVFLDNQWYCFDVSNQLFTPKHHIYLAVGRDYLDVAPIRGVREKGGTENMMSVVQVLAC | not soluble
MSLTNLLQKIGDAVTVVNFSLYEGFIFDMDGTLLDTMPAHLAAWEATAKHFDFPFDAQWLYGLGGMPSAKITTHINKKLGLALDPDRVAAYKMDWFASMGLQAEVIPATYELLCQWQGKKKMAIGTGSQRDSALRLLSNAQVLDKFDAVVTASDVQQHKPHPETFLMACEQLGLTPKQCLVFEDTQLGLQAAHAGGMDCMLVTEQGLVFYPFAHEGHHHHHH | soluble
MSLIYTGRPMLGTERIRGLTIKIFLPLMELLGRVMGVGREEVRHSFIKVNNELVRSRGGRYTPDELLILVPHCLQSSRCEIRLTYDMNHCKRCGKCPIRDLLALRDRYGVSLAIATGGTIARRIVVQTRPKLIIAVACERDLASGIQDTHPIPVYGVLNERPNGPCLDTLVPMQRLEAALRHFLRDVPVSAGGAPDESRRGRDAAAAFGKAQGPECRVTQGSSQRRGSDGEGHHHHHH | not soluble
MCLIAFDWQPDAAAGPVFTLIANRDEFFRRTSAPLSWWEDVPGVLAGRDLEAGGTWLGVSRDGRFAALTNYRAPFDIRAGAPTRGKLVSDFLGGPPVAPLDYLGALAEHSAVYNGFNLLVGDWKRRELAWFCNRAAEGETAVAPPVAVSAGVHALSNARLDTPWPKIVRKRAELGTLLTDNPTPSLDELIELMRDPRVADDDALPHTGIPIERERALSAAFIETPEYGTRGTTALRVTMKEGVRLTVDIKERCDDDGSHRTVRPGTFERAFTFDIDATQPRLEHHHHHH | soluble
MTLSKRLALLGAQSAITLAKPRGLGSSLGLLDRRPFPYRQFSELTKANGRRAFLVDTLALVRSLEAQGVPSKQAEAITSAITEVLNDSLENVSESFVSKAEMQKIEMIQDSNLSKFKSEVKSSQEHHFTVLQRETEKLRGDIEKMRSELRYEIDKVTAGQRLDLNLERGRIRDELANQNTETTNLTNKLDREIHALRAQLEASKYEVIKYCIGTLVSISAVGLAVLRIMI | not soluble
MSLVSIKDIARYCGVSAMTVSRALNNSDDIAEATKEKILKVCEELKYKPNSAAKSLITKKTNMIGLIIPDIANQYYANISKGVSSYIEKHGYGLILCNSNRKKPNEVKYLDFLSEGRVDGIIILPVKPRKEDYEDISRQIPMVMADNFAKGLEVNFVGIDNYAGAIKIITHMVNQGYKKIGVILGDKDSTASSERLNGYKKVLEDKGISYNEDIVIHSNSTFEDGFNIASILIEKGVDSIFAINDTVAMGVIKYCYEKGIKLPEELGLAGYDNIEQAAMLTIPLTTVDQDNKKIGTIAAKMLVDAIKGNAKKTEKIILEPTLVIRKSCGEEGHHHHHH | soluble
MEDLDAYRAACANRIRRLERYKKARSFCSLETDEPTSSSPSLSSNSDVSQENGSSTFDMIREKMFSLMENDMTLLKQLLQLGDQISEIKKERLRRTMSQNSLEYDEEDEKEDKFDSGFSASMSAVTNLYVDDERPQFFSRQNSVLRIPIPPRSSNRFGPRRVIRRPSDILPRQQTNNIRTLHVNSDDSDSSSSGSKTHSPSSSVYNASTLILPSKTTKNRSSNSSIDSGIRDEQLTPSPTFESVVI | not soluble
GPGSMMILPHAEEVELRRGSSPATITSTTGRVNRVAVDTSSEENQEAVSQDRLEGRDDAGKSPTTSASPGTSSKKDRFQATSAQVKGALSTPRRAVYEFHDMFGFLVTEEEKAAEDYERRNNGYSRAYLDKWEYMMTHWANVRQDTLKRYCRRGVPQPKRCAVWQHLLQSWGMKDRFPGVYMRLHSQPLDSKDLADVIARDLDRTFPTNRLFSVKSGQGQQILRRLLHAYANYNPGVGYCQGMGFLAATLILQVEEEEDAFWAFVAVMENAKYNMKAVFAPSFPQLQCAFYVFEALMRQKMPKLYAHLHDRHPIPPSFYAVHWFMTIFTYHFNFGLVSRIWDMFFCEGWKPVYRIALALLKIEERRLLSLNTDTELLLVLKGIQESKRPVELLKTALKIRFKSAYMNQLMAEFNAQPS | not soluble
MEQLTKNQRKKRDEIEAGKSYCSRRFGGATCDDKSAQIYARFDKNDWRIQPAEFYRFHDAEVNTFGYF | soluble
MRYFIVAGEASGDLHASNLVRALKEHDPEAVFAFMGGDFLSEATGERPIFHYREVAFMGFIPVLTHLGVIRRAGEHVQEQMRAFNPDVVIAVDYPGFNMRYVLPFVREELGKPIVYYISPKVWAWKSWRIKTLKKYVDLMLCILPFEKDFFAGHDFPVIYVGNPCYDAVKQHMRPTIEEQERSAKDSRQVALLCGSRLLEVKENLPVMLRVMKQFPDYRPVIAGAPGLTIQDYTPFLPDDSIPVVFGRTYEILRESKAALVTSGTATLETALIGTPQVVCYYIRGGRLTNLIFKYCFGTPFISLTNLIAGRAVVPELFGALFTEKRLAASLSPLLDASSAERQAQLSGYDSIRKSIGTDNTSDKAARHIIARFAKDNARPSSL | not soluble
MEIRKKLVDPSKYCIKCPYTMNPEFITVHNTYNDATAENEVAYMIRNDNQVSFHIAVDDKEAVQGIPLERNAWHTGDGNGNGNRKSIGVEICYSLSGGDRYYKAEDNAAIVVAQLMKQYNIPIKKVRTHQSWSGKYCPHRMLAEGRWNNFIERVQNAYNGDGKVTPTLIPPSTNGTGIAYIEGNGINLRKGLGTGYGVIRQLGKGESYEVWGQSNGWLNLGGNQWIYNDSSYIRYTGESTPTSSQSVNNGVGIVTITADVLRVRKGPGTNYDIVKNVYQGEQYQSWGYRDGWYNVGGDQWVSGEYVKFED | not soluble
MSLKKRIPTLLATMIATALYSQQGLAADLASQCMLGVPSYDRPLVQGDTNDLPVTINANHAKGDYPDDAVFTGSVDIMQGNSRLQADEVQLHQKEAPGQPEPVRTVDALGNVHYDDNQVILKGPKGWANLNTKDTNVWEGDYQMVGRQGRGKADLMKQRGENRYTILDNGSFTSCLPGSDTWSVVGSEIIHDREEQVAEIWNARFKVGPVSIFYSPYLQLPVGDKRRSGFLIPNAKYTTTNYFEFYLPYYWNIAPNMDATITPHYMHRRGNIMWENEFRYLSQAGAGLMELDYLPSDKVYEDEHPNDDSSRRWLFYWNHSGVMDQVWRFNVDYTKVSDPSYFNDFDNKYGSSTDGYATQKFSVGYAVQNFNATVSTKQFQVFSEQNTSSYSAEPQLDVNYYQNDVGPFDTRIYGQAVHFVNTRDDMPEATRVHLEPTINLPLSNNWGSINTEAKLLATHYQQTNLDWYNSRNTTKLDESVNRVMPQFKVDGKMVFERDMEMLAPGYTQTLEPRAQYLYVPYRDQSDIYNYDSSLLQSDYSGLFRDRTYGGLDRIASANQVTTGVTSRIYDDAAVERFNISVGQIYYFTESRTGDDNITWENDDKTGSLVWAGDTYWRISERWGLRGGIQYDTRLDNVATSNSSIEYRRDEDRLVQLNYRYASPEYIQATLPKYYSTAEQYKNGISQVGAVASWPIADRWSIVGAYYYDTNANKQADSMLGVQYSSCCYAIRVGYERKLNGWDNDKQHAVYDNAIGFNIELRGLSSNYGLGTQEMLRSNILPYQNTLEGHHHHHH | soluble
AIAKILLVFDFDNTIIDDNSDTWIVQCAPNKKLPIELRDSYRKGFWTEFMGRVFKYLGDKGVREHEMKRAVTSLPFTPGMVELFNFIRKNKDKFDCIIISDSNSVFIDWVLEAASFHDIFDKVFTNPAAFNSNGHLTVENYHTHSCNRCPKNLCKKVVLIEFVDKQLQQGVNYTQIVYIGDGGNDVCPVTFLKNDDVAMPRKGYTLQKTLSRMSQNLEPMEYSVVVWSSGVDIISHLQFLIKD | soluble
MAVTGQVKWFNNEKGFGFIEVPGENDVFVHFSAIETDGFKSLEEGQKVSFEIEEGNRGPQAKNVIKL | not soluble
